Assay [1] has as its target T1, recombinant human Fc gamma RIIIa (CD16a) 158V (human, UniProt P08637 17-208).
The target of assay [2] is CD19 (target of Table 9).
The target in assay [3] is T2, recombinant human CD19 (human, UniProt P15391 20-291).
T2 sequence (looked up): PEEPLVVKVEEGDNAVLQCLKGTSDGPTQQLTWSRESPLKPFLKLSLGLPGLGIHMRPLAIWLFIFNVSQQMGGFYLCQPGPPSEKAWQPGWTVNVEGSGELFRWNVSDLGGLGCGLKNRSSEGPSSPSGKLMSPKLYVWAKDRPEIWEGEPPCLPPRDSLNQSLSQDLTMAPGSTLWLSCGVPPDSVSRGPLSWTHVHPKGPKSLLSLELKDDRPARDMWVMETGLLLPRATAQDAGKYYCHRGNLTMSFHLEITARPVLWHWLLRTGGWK

In assay [4] the target is T3, cynomolgus monkey Fc gamma receptor CD32a (cynomolgus monkey).
Assay [5] deals with T4, cynomolgus monkey Fc gamma receptor CD16 (cynomolgus monkey, UniProt Q8SPW2 17-208).
Assay [6] has as its target T5, cynomolgus monkey Fc gamma receptor CD32b (cynomolgus monkey).
Assay [7] concerns the target T6, recombinant human Fc gamma RIIa (CD32a) 131H (human, UniProt P12318 36-218).
T6 sequence (looked up): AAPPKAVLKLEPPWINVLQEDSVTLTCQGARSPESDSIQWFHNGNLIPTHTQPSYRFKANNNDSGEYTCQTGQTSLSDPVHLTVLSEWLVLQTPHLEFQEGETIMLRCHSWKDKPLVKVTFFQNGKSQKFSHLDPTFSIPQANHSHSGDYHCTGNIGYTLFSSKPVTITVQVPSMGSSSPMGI

For assay [8], the target named is T7, recombinant human Fc gamma RIIa (CD32a) 131R (human, UniProt P12318 36-218).
T7 sequence (looked up): T6 sequence (looked up) with H132R

The target in assay [9] is T8, recombinant human Fc gamma RIIb/c (CD32b/c) (human, UniProt P31994 46-217).
T8 sequence (looked up): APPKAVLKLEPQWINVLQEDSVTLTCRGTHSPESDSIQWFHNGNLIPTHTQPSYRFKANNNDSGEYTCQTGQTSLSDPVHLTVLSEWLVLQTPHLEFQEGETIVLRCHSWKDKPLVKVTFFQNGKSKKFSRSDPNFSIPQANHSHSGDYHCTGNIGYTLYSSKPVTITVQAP

Assay [10] has as its target T9, recombinant human Fc gamma RIIIb (CD16b) (human, UniProt O75015 17-200).
In assay [11] the target is T1, recombinant human Fc gamma RIIIa …. The source holds these as a separate data set.
Assay [12] addresses T10, recombinant human Fc gamma RI (CD64) (human, UniProt P12314 16-288).
In assay [13] the target is T11, recombinant human Fc gamma RIIIa (CD16a) 158F (human, UniProt P08637 17-208).
Assay [14] deals with T9, recombinant human Fc gamma RIIIb (CD16b). The source holds these as a separate data set.
Assay [15] concerns the target T1, recombinant human Fc gamma RIIIa …. The source holds these as a separate data set.
For assay [16], the target named is T11, recombinant human Fc gamma RIIIa …. This is another data set of the same source.
Assay [17] concerns the target T3, cynomolgus monkey Fc gamma receptor …. The source holds these as a separate data set.
Assay [18] has as its target T4, cynomolgus monkey Fc gamma receptor CD16. This is another data set of the same source.
The target in assay [19] is T5, cynomolgus monkey Fc gamma receptor …. The source holds these as a separate data set.
Assay [20] has as its target T7, recombinant human Fc gamma RIIa (CD32a) …. The source holds these as a separate data set.
Assay [21] addresses T8, recombinant human Fc gamma RIIb/c …. The source holds these as a separate data set.
Assay [22] has as its target T10, recombinant human Fc gamma RI (CD64). The source holds these as a separate data set.
In assay [23] the target is T12, cynomolgus monkey CD19 on cells (cynomolgus monkey, UniProt A0A2K5W8L9 20-557).
T12 sequence: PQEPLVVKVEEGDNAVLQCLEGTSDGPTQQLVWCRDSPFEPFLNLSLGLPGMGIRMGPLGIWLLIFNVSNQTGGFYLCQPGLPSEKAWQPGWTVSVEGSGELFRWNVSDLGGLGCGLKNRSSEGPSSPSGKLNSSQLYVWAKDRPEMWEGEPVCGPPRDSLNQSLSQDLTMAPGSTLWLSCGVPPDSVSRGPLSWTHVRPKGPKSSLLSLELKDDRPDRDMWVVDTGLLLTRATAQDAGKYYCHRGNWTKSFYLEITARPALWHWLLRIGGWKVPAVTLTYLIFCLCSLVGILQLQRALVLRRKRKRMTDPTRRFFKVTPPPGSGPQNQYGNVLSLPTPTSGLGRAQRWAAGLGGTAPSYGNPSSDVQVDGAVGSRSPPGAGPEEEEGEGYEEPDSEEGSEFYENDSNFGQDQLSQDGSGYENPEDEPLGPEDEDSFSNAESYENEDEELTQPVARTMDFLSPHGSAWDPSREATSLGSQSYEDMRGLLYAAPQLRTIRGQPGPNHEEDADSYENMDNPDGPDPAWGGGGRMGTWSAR

Assay [24] concerns the target T13, human CD19 on cells (human, UniProt P15391 20-556).
T13 sequence (looked up): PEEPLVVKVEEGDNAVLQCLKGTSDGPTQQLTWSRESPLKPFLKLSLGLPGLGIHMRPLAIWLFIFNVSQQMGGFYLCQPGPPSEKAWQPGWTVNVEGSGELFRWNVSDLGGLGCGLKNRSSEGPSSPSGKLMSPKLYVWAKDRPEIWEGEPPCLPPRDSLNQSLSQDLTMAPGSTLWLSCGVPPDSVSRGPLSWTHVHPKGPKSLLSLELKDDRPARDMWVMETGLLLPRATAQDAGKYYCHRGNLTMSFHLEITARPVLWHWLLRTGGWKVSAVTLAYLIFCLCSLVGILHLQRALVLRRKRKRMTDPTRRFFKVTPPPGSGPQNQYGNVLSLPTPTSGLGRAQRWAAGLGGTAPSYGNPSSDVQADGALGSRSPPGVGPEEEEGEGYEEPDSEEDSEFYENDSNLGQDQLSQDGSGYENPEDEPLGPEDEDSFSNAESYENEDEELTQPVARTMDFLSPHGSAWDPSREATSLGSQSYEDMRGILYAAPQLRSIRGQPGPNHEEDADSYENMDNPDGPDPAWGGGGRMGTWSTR

Assay [25] addresses T14, recombinant cynomolgus monkey CD19 (cynomolgus monkey, UniProt A0A2K5W8L9 20-292).
T14 sequence: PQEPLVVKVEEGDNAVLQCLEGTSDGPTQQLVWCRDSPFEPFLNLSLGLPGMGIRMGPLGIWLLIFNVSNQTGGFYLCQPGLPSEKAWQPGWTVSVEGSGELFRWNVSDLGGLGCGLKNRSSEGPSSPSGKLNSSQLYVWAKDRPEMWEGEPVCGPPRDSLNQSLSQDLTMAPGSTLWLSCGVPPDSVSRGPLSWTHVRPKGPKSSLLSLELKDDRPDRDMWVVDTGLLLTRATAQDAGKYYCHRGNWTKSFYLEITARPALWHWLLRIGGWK

Positions count from the first letter of the chain named. Read-outs that look alike come from different tables or passages of the source.

As a reminder, the Kd is the free concentration of one partner at which half of the binding sites on the other are occupied at equilibrium, for simple one-to-one binding. As usually defined, the EC50 is the concentration needed to bring the measured effect to its halfway point.

T1 sequence (P08637 17-208 F176V limits assumed): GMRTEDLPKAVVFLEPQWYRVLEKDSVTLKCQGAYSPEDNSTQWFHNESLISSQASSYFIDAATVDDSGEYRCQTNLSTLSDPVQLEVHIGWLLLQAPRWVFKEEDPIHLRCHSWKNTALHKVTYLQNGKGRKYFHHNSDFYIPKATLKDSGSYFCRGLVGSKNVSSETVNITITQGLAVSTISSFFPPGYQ
T9 sequence (O75015 17-200 limits assumed): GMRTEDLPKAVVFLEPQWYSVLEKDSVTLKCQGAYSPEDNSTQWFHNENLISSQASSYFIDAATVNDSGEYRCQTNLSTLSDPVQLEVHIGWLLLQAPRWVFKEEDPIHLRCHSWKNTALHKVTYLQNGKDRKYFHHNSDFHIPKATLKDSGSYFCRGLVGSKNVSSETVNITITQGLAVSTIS
T4 sequence (Q8SPW2 17-208 limits assumed): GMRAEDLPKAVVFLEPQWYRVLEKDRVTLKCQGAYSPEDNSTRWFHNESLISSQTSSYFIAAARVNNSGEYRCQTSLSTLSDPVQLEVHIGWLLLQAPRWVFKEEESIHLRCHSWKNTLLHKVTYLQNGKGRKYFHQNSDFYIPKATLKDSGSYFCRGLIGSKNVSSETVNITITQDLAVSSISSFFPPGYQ
T11 sequence (P08637 17-208 limits assumed): as the sequence (P08637 17-208 F176V limits assumed) above, with V160F counted along it
T10 sequence (P12314 16-288 limits assumed): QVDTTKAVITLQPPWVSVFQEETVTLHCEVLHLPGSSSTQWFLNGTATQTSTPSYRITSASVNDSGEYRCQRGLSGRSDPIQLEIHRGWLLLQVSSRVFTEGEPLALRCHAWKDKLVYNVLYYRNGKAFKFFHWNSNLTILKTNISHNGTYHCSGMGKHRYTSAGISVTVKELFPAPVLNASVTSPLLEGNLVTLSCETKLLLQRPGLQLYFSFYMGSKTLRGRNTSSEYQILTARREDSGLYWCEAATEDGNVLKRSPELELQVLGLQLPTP

B1: B19c66 (antibody, human IgG1, kappa)
light: not shown
heavy: not shown
chain: CPPCPAPELLGGPSVFLFPPKPKDTLMISRTPEVTCVVVDVSHEDPEVKFNWYVDGVEVHNAKTKPREEQYNSTYRVVSVLTVLHQDWLNGKEYKCKVSNKALPAPIEKTISKAKGQPREPQVYVYPPSRDELTKNQVSLTCLVKGFYPSDIAVEWESNGQPENNYKTTPPVLDSDGSFALVSKLTVDKSRWQQGNVFSCSVMHEALHNHYTQKSLSLSPGK
Consider B1, for which the dissociation constant (Kd) in [1] was 234 nM; in assay [2], 21.8 nM.

B2: Tafasitamab-cxix (research grade biosimilar) (antibody, human IgG1, kappa)
heavy: EVQLVESGGGLVKPGGSLKLSCAASGYTFTSYVMHWVRQAPGKGLEWIGYINPYNDGTKYNEKFQGRVTISSDKSISTAYMELSSLRSEDTAMYYCARGTYYYGTRVFDYWGQGTLVTVSSASTKGPSVFPLAPSSKSTSGGTAALGCLVKDYFPEPVTVSWNSGALTSGVHTFPAVLQSSGLYSLSSVVTVPSSSLGTQTYICNVNHKPSNTKVDKKVEPKSCDKTHTCPPCPAPELLGGPDVFLFPPKPKDTLMISRTPEVTCVVVDVSHEDPEVQFNWYVDGVEVHNAKTKPREEQFNSTFRVVSVLTVVHQDWLNGKEYKCKVSNKALPAPEEKTISKTKGQPREPQVYTLPPSREEMTKNQVSLTCLVKGFYPSDIAVEWESNGQPENNYKTTPPMLDSDGSFFLYSKLTVDKSRWQQGNVFSCSVMHEALHNHYTQKSLSLSPG
light: DIVMTQSPATLSLSPGERATLSCRSSKSLQNVNGNTYLYWFQQKPGQSPQLLIYRMSNLNSGVPDRFSGSGSGTEFTLTISSLEPEDFAVYYCMQHLEYPITFGAGTKLEIKRTVAAPSVFIFPPSDEQLKSGTASVVCLLNNFYPREAKVQWKVDNALQSGNSQESVTEQDSKDSTYSLSSTLTLSKADYEKHKVYACEVTHQGLSSPVTKSFNRGEC
With B2, the Kd in assay [3] was 1.4 nM; in assay [4] it was 76.2 nM; in [5], 1.34 nM; in assay [6], 53 nM; in assay [7], 231 nM; in assay [8], 203 nM. The Kd in [9] worked out at 234 nM; in [10] it was 176 nM; in assay [11], 88.9 nM; in [12], 5.6 nM; in [13] it was 121 nM; in assay [14], 62.1 nM. For the same molecule, the dissociation constant (Kd) is 4.19 nM in [15]; 15.3 nM in assay [16]; 181 nM in assay [17]; 49.5 nM in assay [18]; 152 nM in assay [19]; 39.1 nM in assay [20]. In addition, the Kd in assay [21] was 99.4 nM; in assay [22], under 0.02 nM; in [25], 1800 nM. The concentration for a half-maximal effect (EC50) came to 57 nM in [23] and 1 nM in assay [24].

The record behind these values is patent publication US20250084169A1 (published 2025).
